Measurements reported in US12618845B2, “Methods and compositions for protein sequencing” (Quantum-Si Incorporated, priority 2018, dated 2026).
Read-outs that look alike come from different tables or passages of the source.

Legend:
[1] = tested on: amino acid at a terminal position of a polypeptide; conditions: amino acid identity at a terminal position of a polypeptide; phospho-Y also at an internal position; cited from earlier work
peptide substrates = assay type: biochemical; conditions: 1 mM peptide, 1 mM enzyme

B1: Synechococcus elongatus ClpS1: amino acid recognition protein, SEQ ID NO: 10 (protein, listed as Synechococcus elongatus)
chain: MAVETIQKPETTTKRKIAPRYRVLLHNDDFNPMEYVVMVLMQTVPSLTQPQAVDIMMEAHTNGTGLVITCDIEPAEFYCEQLKSHGLSSSIEPDD
In the case of B1, the “Binding Pref.” value [1] is listed as “F, W, Y”.

B2: Plasmodium falciparum ClpS: amino acid recognition protein, SEQ ID NO: 15 (protein, listed as Plasmodium falciparum)
chain: MFKDLKPFFLCIILLLLLIYKCTHSYNIKNKNCPLNFMNSCVRINNVNKNTNISFPKELQKRPSLVYSQKNFNLEKIKKLRNVIKEIKKDNIKEADEHEKKEREKETSAWKVILYNDDIHNFTYVTDVIVKVVGQISKAKAHTITVEAHSTGQALILSTWKSKAEKYCQELQQNGLTVSIIHESQLKDKQKK
In the case of B2, the “Binding Pref.” value [1] is given as “F, W, Y, L,”.

B3: Escherichia coli leucyl/phenylalanyl-tRNA-protein transferase: amino acid recognition protein, SEQ ID NO: 16 (protein, listed as Escherichia coli)
chain: MRLVQLSRHSIAFPSPEGALREPNGLLALGGDLSPARLLMAYQRGIFPWFSPGDPILWWSPDPRAVLWPESLHISRSMKRFHKRSPYRVTMNYAFGQVIEGCASDREEGTWITRGVVEAYHRLHELGHAHSIEVWREDELVGGMYGVAQGTLFCGESMFSRMENASKTALLVFCEEFIGHGGKLIDCQVLNDHTASLGACEIPRRDYLNYLNQMRLGRLPNNFWVPRCLFSPQELE
For B3, the “Binding Pref.” value [1] is listed as “K, R”.

B4: UBR-box domain from Homo sapiens UBR2: amino acid recognition protein, SEQ ID NO: 33 (protein, listed as Homo sapiens)
chain: MGPLGSLCGRVFKVGEPTYSCRDCAVDPTCVLCMECFLGSIHRDHRYRMTTSGGGGFCDCGDTEAWKEGPYCQKHE
For B4, the “Binding Pref.” value [1] is given as “K, R, H”.

B5: Saccharomyces cerevisiae GID10: amino acid recognition protein, SEQ ID NO: 31 (protein, listed as Saccharomyces cerevisiae)
chain: MTSLNIMGRKFILERAKRNDNIEEIYTSAYVSLPSSTDTRLPHFKAKEEDCDVYEEGTNLVGKNAKYTYRSLGRHLDFLRPGLRFGGSQSSKYTYYTVEVKIDTVNLPLYKDSRSLDPHVTGTFTIKNLTPVLDKVVTLFEGYVINYNQFPLCSLHWPAEETLDPYMAQRESDCSHWKRFGHFGSDNWSLTERNFGQYNHESAEFMNQRYIYLKWKERFLLDDEEQENQMLDDNHHLEGASFEGFYYVCLDQLTGSVEGYYYHPACELFQKLELVPTNCDALNTYSSGFEIA
For B5, the “Binding Pref.” value [1] is given as “P, M, V”.

B6: UBR-box domain from Homo sapiens UBR1: amino acid recognition protein, SEQ ID NO: 32 (protein, listed as Homo sapiens)
chain: MGPLGSLCGRVFKSGETTYSCRDCAIDPTCVLCMDCFQDSVHKNHRYKMHTSTGGGFCDCGDTEAWKTGPFCVNHEP
For B6, the “Binding Pref.” value [1] is given as “K, R, H”.

B7: H. sapiens Fyn SH2 domain: amino acid recognition protein, SEQ ID NO: 22 (protein, listed as Homo sapiens)
chain: MGAMDSIQAEEWYFGKLGRKDAERQLLSFGNPRGTFLIRESETTKGAYSLSIRDWDDMKGDHVKHYKIRKLDNGGYYITTRAQFETLQQLVQHYSERAAGLSSRLVVPSHK
In the case of B7, the “Binding Pref.” value [1] is given as “phospho-Y”.

B8: Saccharomyces cerevisiae UBR1: amino acid recognition protein, SEQ ID NO: 18 (protein, listed as Saccharomyces cerevisiae)
chain: MGSVHKHTGRNCGRKFKIGEPLYRCHECGCDDTCVLCIHCFNPKDHVNHHVCTDICTEFTSGICDCGDEEAWNSPLHCKAEEQ
In the case of B8, the “Binding Pref.” value [1] is listed as “K, R, H”.

B9: P. horikoshii Tet (protein)
chain: MEVRNMVDYELLKKVVEAPGVSGYEFLGIRDVVIEEIKDYVDEVKVDKLGNVIAHKKGEGPKVMIAAHMDQIGLMVTHIEKNGFLRVAPIGGVDPKTLIAQRFKVWIDKGKFIYGVGASVPPHIQKPEDRKKAPDWDQIFIDIGAESKEEAEDMGVKIGTVITWDGRLERLGKHRFVSIAFDDRIAVYTILEVAKQLKDAKADVYFVATVQEEVGLRGARTSAFGIEPDYGFAIDVTIAADIPGTPEHKQVTHLGKGTAIKIMDRSVICHPTIVRWLEELAKKHEIPYQLEILLGGGTDAGAIHLTKAGVPTGALSVPARYIHSNTEVVDERDVDATVELMTKALENIHELKI
For B9, the “HPLC Assay Conv” value (peptide substrates; substrate AAPAAP{LYSN3}NH2 (SEQ ID NO: 90), 2.5 mM ZnCl2, 25 mM Tris pH 8.0, 70° C./1 hr) was 100%, the “HPLC Assay Conv” value (peptide substrates; substrate DDMDDM{LYSN3}NH2 (SEQ ID NO: 72), 2.5 mM ZnCl2, 25 mM Tris pH 8.0, 70° C./1 hr) was 60% and the “HPLC Assay Conv” value (peptide substrates; substrate FFPFFP{LYSN3}NH2 (SEQ ID NO: 94), 2.5 mM ZnCl2, 25 mM Tris pH 8.0, 70° C./1 hr) was 100%. For the same molecule, the “HPLC Assay Conv” value (peptide substrates; substrate YYPYYP{LYSN3}NH2 (SEQ ID NO: 92), 2.5 mM ZnCl2, 25 mM Tris pH 8.0, 70° C./1 hr) was 100%.

B10: Agrobacterium tumifaciens ClpS1 C7S: amino acid recognition protein, SEQ ID NO: 6 (protein, listed as Agrobacterium tumifaciens)
chain: MIAEPISMQGEGDGEDGGTNRGTSVITRVKPKTKRPNLYRVLLLNDDYTPMEFVIHILERFFQKDREAATRIMLHVHQHGVGECGVFTYEVAETKVSQVMDFARQHQHPLQCVMEKK
In the case of B10, the “Binding Pref.” value [1] is given as “F, W, Y, L”.

B11: Agrobacterium tumifaciens ClpS1 C7S C84S C112S: amino acid recognition protein, SEQ ID NO: 7 (protein, listed as Agrobacterium tumifaciens)
chain: MIAEPISMQGEGDGEDGGTNRGTSVITRVKPKTKRPNLYRVLLLNDDYTPMEFVIHILERFFQKDREAATRIMLHVHQHGVGESGVFTYEVAETKVSQVMDFARQHQHPLQSVMEKK
In the case of B11, the “Binding Pref.” value [1] is given as “F, W, Y, L”.

B12: Escherichia coli ClpS: amino acid recognition protein, SEQ ID NO: 13 (protein, listed as Escherichia coli)
chain: MGKTNDWLDFDQLAEEKVRDALKPPSMYKVILVNDDYTPMEFVIDVLQKFFSYDVERATQLMLAVHYQGKAICGVFTAEVAETKVAMVNKYARENEHPLLCTLEKA
In the case of B12, the “Binding Pref.” value [1] is given as “F, W, Y, L”.

B13: Escherichia coli ClpS M40A: amino acid recognition protein, SEQ ID NO: 14 (protein, listed as Escherichia coli)
chain: MGKTNDWLDFDQLAEEKVRDALKPPSMYKVILVNDDYTPAEFVIDVLQKFFSYDVERATQLMLAVHYQGKAICGVFTAEVAETKVAMVNKYARENEHPLLCTLEKA
For B13, the “Binding Pref.” value [1] is listed as “F, W, Y, L”.

B14: P. falciparum M1 (protein, listed as Plasmodium falciparum)
chain: PKIHYRKDYKPSGFIINQVTLNINIHDQETIVRSVLDMDISKHNVGEDLVFDGVGLKINEISINNKKLVEGEEYTYDNEFLTIFSKFVPKSKFAFSSEVIIHPETNYALTGLYKSKNIIVSQCEATGFRRITFFIDRPDMMAKYDVTVTADKEKYPVLLSNGDKVNEFEIPGGRHGARFNDPPLKPCYLFAVVAGDLKHLSATYITKYTKKKVELYVFSEEKYVSKLQWALECLKKSMAFDEDYFGLEYDLSRLNLVAVSDFNVGAMENKGLNIFNANSLLASKKNSIDFSYARILTVVGHEYFHQYTGNRVTLRDWFQLTLKEGLTVHRENLFSEEMTKTVTTRLSHVDLLRSVQFLEDSSPLSHPIRPESYVSMENFYTTTVYDKGSEVMRMYLTILGEEYYKKGFDIYIKKNDGNTATCEDFNYAMEQAYKMKKADNSANLNQYLLWFSQSGTPHVSFKYNYDAEKKQYSIHVNQYTKPDENQKEKKPLFIPISVGLINPENGKEMISQTTLELTKESDTFVFNNIAVKPIPSLFRGFSAPVYIEDQLTDEERILLLKYDSDAFVRYNSCTNIYMKQILMNYNEFLKAKNEKLESFQLTPVNAQFIDAIKYLLEDPHADAGFKSYIVSLPQDRYIINFVSNLDTDVLADTKEYIYKQIGDKLNDVYYKMFKSLEAKADDLTYFNDESHVDFDQMNMRTLRNTLLSLLSKAQYPNILNEIIEHSKSPYPSNWLTSLSVSAYFDKYFELYDKTYKLSKDDELLLQEWLKTVSRSDRKDIYEILKKLENEVLKDSKNPNDIRAVYLPFTNNLRRFHDISGKGYKLIAEVITKTDKFNPMVATQLCEPFKLWNKLDTKRQELMLNEMNTMLQEPQISNNLKEYLLRLTNK
In the case of B14, the “HPLC Assay Conv” value (peptide substrates; substrate MetTyr, 2.5 mM ZnCl2 25 mM Tris pH 8.0, 30° C./1 hr) is reported as 7%.

B15: Agrobacterium tumifaciens ClpS2: amino acid recognition protein, SEQ ID NO: 2 (protein, listed as Agrobacterium tumifaciens)
chain: MSDSPVDLKPKPKVKPKLERPKLYKVMLLNDDYTPREFVTVVLKAVFRMSEDTGRRVMMTAHRFGSAVVVVCERDIAETKAKEATDLGKEAGFPLMFTTEPEE
For B15, the “Binding Pref.” value [1] is given as “F, W, Y”.

B16: Agrobacterium tumifaciens ClpS2 variant 1 C72S: amino acid recognition protein, SEQ ID NO: 5 (protein, listed as Agrobacterium tumifaciens)
chain: MSDSPVDLKPKPKVKPKLERPKLYKVMLLNDDYTPMSFVTVVLKAVFRMSEDTGRRVMMTAHRFGSAVVVVSERDIAETKAKEATDLGKEAGFPLMFTTEPEE
For B16, the “Binding Pref.” value [1] is given as “F, W, Y”.

B17: Agrobacterium tumifaciens ClpS2 C71S: amino acid recognition protein, SEQ ID NO: 3 (protein, listed as Agrobacterium tumifaciens)
chain: MSDSPVDLKPKPKVKPKLERPKLYKVMLLNDDYTPREFVTVVLKAVFRMSEDTGRRVMMTAHRFGSAVVVVSERDIAETKAKEATDLGKEAGFPLMFTTEPEE
In the case of B17, the “Binding Pref.” value [1] is given as “F, W, Y”.
